Data on 2 substances can be found in article PMC3656097.

Test [1] addresses FGF2 (UniProt P09038). Conditions: cited from earlier work.
The target in test [2] is FGF9 (UniProt P31371). The test can be described thus: SPR; BIAcore 3000; […] (31.25–[…]), HBS-EP buffer; 1:1 Langmuir fit.
For test [3], the target named is FGF2 (UniProt P09038). The test is described as above.
The target of test [4] is FGF9 (UniProt P31371). The description is as above. This is another data set of the same source.
Test [5] deals with FGF2 (UniProt P09038). The description is as above. The source holds these as a separate data set.

Where two headings read alike, the source gives them in different places.

In general, Kd refers to the concentration at which binding is half-saturated. On to FGFR2b Loop 2,3 (from UniProt P21802), for which, in test [1], the dissociation constant (Kd) was 12.8 nM.

The term koff denotes the first-order rate constant of dissociation. Low values mean slow dissociation, high ones fast dissociation. One may read the kon as the second-order rate constant of association. Read a high kon as fast association. In the case of FGFR3b Loop 2,3 (domain or fragment), the dissociation constant Kd was 29.9 nM in test [2], 13.5 nM in test [3], 31.2 nM in test [4] and 12.3 nM in test [5]. For the same substance, the off-rate (koff) in test [2] worked out at 6.53e-05 s⁻¹; in test [3], 6.69e-05 s⁻¹; in test [4], 9.25e-05 s⁻¹; in test [5], 0.000159 s⁻¹. Moreover, the kon in test [2] came out at 2190 M⁻¹ s⁻¹; in test [3], 4980 M⁻¹ s⁻¹; in test [4] it was 2920 M⁻¹ s⁻¹; in test [5] it was 16500 M⁻¹ s⁻¹.
